Measured values from the nanobody polyreactivity screen of Harvey et al. (2022).

Experiment: yeast display, Sf9 membrane polyspecificity reagent, FACS + sequencing; frameworks hold sequencing errors
In short: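 Sorting gates, low and high (top ~1%), were placed on anti-HA fluorescence to track expression and on streptavidin fluorescence to track reagent binding. A clone's polyreactivity label is taken from the gate it came out of. The reagent was 10% biotinylated, detergent-solubilized Sf9 membrane, applied for 1 hour at 4 °C to galactose-induced yeast display cells.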

| Sequence | polyreactivity (PSR sort gate) |
| --- | --- |
| QVQLVDAGGRLVQAGGSLRLSCAASGRIFAYYAMGWSRQAPGKDRELVSGISQRGSRTYYADSVKGRFTISRDNEKNTVYLQMNSLKPEDTAVYYCNTQRWGSGVGSLMDYWGQGTQVTVSS | high polyreactivity |
| QVQLVDSAGGLVQAGGSLRLICAASGYTQIKNAMGVSRHAPGKERELVAAISSGGSTKYADSVKGRFTISRDNAKNTVYLQMNSLKPEDTAVYYCAKGRVVPYRRYTRIHMYHWGLGTQVTVSS | high polyreactivity |
| QVQLVDSAGGLVQAGGSLRLSCDAYGSNFGVNAMGWYRQAPGKERELVAIITSTTYADSVKGRFTISRDNAKNTVYLQMNSLKREDTAVYYCAIDQERVTKGRFYLLEYDWGHGTQVTVSS | low polyreactivity |
| QVQLVDSAGGLVQAGGSLSLSCAASGITFVSKVMGWYRQAPGKEREFVAAITGRGDSTYADSVKGRFTNSRDNAKNCVYLQMNSLKPEDTAVYYCAAEYSVPYRGWDGYEYWGQGTQVTVSS | low polyreactivity |
| QVQLVDSCGVLVQAGGSLRLSCAASGITFNLYAMGWYRQAPGKERELVAAISNVGSTKYADSVKGRFTISRDNAKNTVYLQMNSLKPEDTAVYYCAAAQWAYWLLYNYWGQGTQVTVSS | low polyreactivity |
| QVQLVDSGGCLVHAGASLRLSCAASGGIFRTYAMGWARQAAGKERELVAAITFSAGSTFYADSVKGRYTISRDNAKNTVYLQMNSLKPEDTAVYDCATPGYILGLYQYWHHYDYWGQGTQVTVSS | low polyreactivity |
| QVQLVDSGGCLVQAGGSLRLSCASSGRIIAHYAMGWYRQSPGKESELVAAISTRGGSTYYADSVKGRFTISRDNEKNTVYLQMNSLKPEDTAVYYCAAKSNNIATMDYWGQGTQVTVSS | low polyreactivity |
| QVQLVDSGGGLDQAGGSLRLSCAASGSNLRLKAMGWYRQAPGKERELVADITRAGSTYYADSVKGRFTISRDNAKNTVYLQMNSLKPEDTAVYYCAADAYTGQIPYYYFEHYYWGHGTQVTVSS | high polyreactivity |
| QVQLVDSGGGLFQAGGSLSLICAASASKYDINAMGRYRQAPGKETELVADISWSGGRTYYADSVKGRFTISRDNAKNTVYLKMNSLKPEETAVYYCNAQDSRFWYAEYDSWGQGTQVTVSS | low polyreactivity |
| QVQLVDSGGGLVKAGGSLRLSCAASGSTFDTNVMGWYRPAPGKERELVAAIDVSGGSTYYADSVKGRFTISRDNAKNYVYLQMYSLKPEDTAVFYSAAEDGLYGMDYWGQGSQVTVSS | low polyreactivity |
| QVQLVDSGGGLVPSGGSLRISCAASGRIFYPYAMGWYRQAPGKEREVVATITRTGSTYYADSVKGRFTISRDNAMNTVYLQMNSLKPEDTAVYYCNAGIYRPRVDYWGQGTQVTVSS | high polyreactivity |
| QVQLVDSGGGLVQAGASLRLRCAASVLTLYANAMGRYRQAPGKERELVAGIDNGGSTSYADSVKGRFTISRDNAKKTVYLQKNSLKPEDTAVYYCAAQRDSVGGRHYAQRWIYLMYYWGQGTQVTVSS | low polyreactivity |
| QVQLVDSGGGLVQAGCSLRLSCAASGRTFSNYAMGWYRQAPGKDRELVAAISWRGGSTYYADSVKGRFTISRDNAKNTVYLQMTSLKPEDTAVYYCAALPRYALGEDYWGQGTQVTVSS | high polyreactivity |
| QVQLVDSGGGLVQAGGILRLSCAASGRTISSYAMGWYRQAPGKERELVAAITRTGGRTYYAYSVKGRFTISRDNAKNTVYLQMNSLKPEDTAVYYCAATGIRYGVKYYYWGQGTQVTVSS | high polyreactivity |
| QVQLVDSGGGLVQAGGRLLLSCAASGRTFRKYTMGWYREAPGKERELVAAISSRGGSTYYADSVKGRFTISRDNAKYTVYLQMNSMKPEDTAVYYCDTDYITPSSEGDYWGQGTQVTVSS | high polyreactivity |
| QVQLVDSGGGLVQAGGRLRLSCAASGRTFVRYAMGWYRQAPGKERELVATIRWRGGSTYYADSVKGRFTISRDNAKNTVYLQMNSLKPDDTAVYYCAARRYSSGLTDDYWGQGTQVTVSS | high polyreactivity |
| QVQLVDSGGGLVQAGGRLRLSCAASGSTFIYNAMGWYRQAPGKERELVASISTSGGSTYYADSVKGRFTISRDNAKNTVYLQMNSLKPEDTAVYYCAKRYFFKYGYWGQGTQVTVSS | high polyreactivity |
| QVQLVDSGGGLVQAGGRLRLSCAASGVTIQPNARGWYRQAPGKERELVPSISWSDGSTYYADSVKGRFTISRDNAKNTVFLQMNSLKPEDTAVYYCAADFTYYDPPYRDYNYESWGQGTQVTVSS | low polyreactivity |
| QVQLVDSGGGLVQAGGSLRLICAASGFIFGKYAMGWYRQAPGKEWEFVAAITGNGGSTYYADSVKGRFTISRDNAKNTVYLQMNSLKPEDTAVYYCNADRGYRRRSGMDYWGQGTQLTVSS | low polyreactivity |
| QVQLVDSGGGLVQAGGSLRLRCAASGRIFWYYAMGWYRQAPGKERELVASITRGNNTYYADSVKGRFTISRDNAKNTVYLQMNSLKPEVTAVFYCAKRYIYSYYWGQGTQVTVSS | high polyreactivity |
| QVQLVDSGGGLVQAGGSLRLSCAASGFIFRSYALGWYRQAPGKERELVAAISRRGGSTYYADSVKGRFTISRDHAKNTVYLQMNSLKPEDTAVYYCAAESRGVYGYAQSDFWGQGTQVTVSS | high polyreactivity |

| Sequence | polyreactivity (PSR sort gate) |
| --- | --- |
| QVQLVDSGGGLVQAGGSLRLSCAASGFIFSSYAMGWYRQAPGKERELVAAITRSGGRTYYADSVKGRFTISRDNAKNTVYLQMNSLKQEDTAVYYCAAPNGAGYRGDYWGQGTQVTVSS | high polyreactivity |
| QVQLVDSGGGLVQAGGSLRLSCAASGFTFAYYALGWYRPAPGKEREFVAAITSGGRTNYADSVKGRFTISRDNAKNTVYLQMNSLKPEDTAVYYCAKYRRGGSRHYSVFNHDYWGQGTQVTVSS | high polyreactivity |
| QVQLVDSGGGLVQAGGSLRLSCAASGFTFAYYAMGWYRQAPGKERELVAGISWRGGRTYYADSVKGRFTISRDNAKNTVYLQMNSLKPEDTAVYYCAKQPGNFGRFDYWGQGTKVTVSS | high polyreactivity |
| QVQLVDSGGGLVQAGGSLRLSCAASGFTFDGYAMGWYRQAPGQEREFVATISLSGGSTYYADSVKGRCTISRDNAKNTVYLQMNSLNPEDTAVYYCGKDTQPYLIDGFEYWGQGTQVTVSS | low polyreactivity |
| QVQLVDSGGGLVQAGGSLRLSCAASGFTFQRKAMGWYRQATGKERELVAAISKSGGSTYYADSVKARFTISRDNEKNTVYLEMNSLKPEDTAVYYCASTALFSGLTKRYYWGQGTQVTVSS | high polyreactivity |
| QVQLVDSGGGLVQAGGSLRLSCAASGFTFQYYSMGWYRQATGKERELVADISSSGDSTNYADSVKGRFTISRDTAKNTVYLQMNSLKPEDTAVYYCAADYSQPNFEYYYWGQGTQVTVSS | low polyreactivity |
| QVQLVDSGGGLVQAGGSLRLSCAASGGIFYHNAMGWYRQAPGKERELVAAISGRGGRTYYADSVKGRFTISRDNAKNTVYLQMNSLKPEDTAVYYCYADQYKDFDYWGQGTQVTVSS | low polyreactivity |
| QVQLVDSGGGLVQAGGSLRLSCAASGIIFSDYAMGWYRKAPGIERELVAAISRNGGSTYYADSVKGRFTISRDIAKYTVYLQMNSLKPEDTAVYYCAATRRYRYNWGQGTQVTVSS | high polyreactivity |
| QVQLVDSGGGLVQAGGSLRLSCAASGITFDHYAMGWSRQAPGKEREFVAAIDDIGGDTYYADSVKGRFTISRDNAKNTVYLQMNSLKPEATAVYYCAADYGYYSRFYYWGQGTQVTVSS | low polyreactivity |
| QVQLVDSGGGLVQAGGSLRLSCAASGITFYDYTMGWYRQAPGKERELVAAITSSGVSTYYADSVKGRFTISRDNAKNTVYLQMNSLKPEDTAVYYCAADLYEDPNGEDDYWGQGTQVTVSS | low polyreactivity |
| QVQLVDSGGGLVQAGGSLRLSCAASGITFYYYAMGSYRQAPGKETELVAAISSRGGSTYYADSVKGRFTISRDNAKNTVYFQMNSLKQEDTAVYYCAADYYSSYYSSYIKSYYWGLGTQVTVSS | high polyreactivity |
| QVQLVDSGGGLVQAGGSLRLSCAASGITLSWYAKGWYRQAPGQERELVAGISGRGGRTYYADSVKGRFTISRDNAKNTVYLQMNSLKPEDTAVYYCAAVSPGYRSYDYWGQGTQVTVSS | high polyreactivity |
| QVQLVDSGGGLVQAGGSLRLSCAASGITLYRYVMRWYRQAPGKESELVADISGRGTSTYYADSVKGPFTISRDNAKNTVYLQMNSLKPEDTAVYYCNAEYTKTGALVIPYTYYYAEDYWGQGTQVTVSS | low polyreactivity |
| QVQLVDSGGGLVQAGGSLRLSCAASGLIFAYYAMGWYRKAPGKERELVAAISSVGSTYYADSVKGRFTISRDNAKNTVYLQMNSLKPEDTSVYYCAAALYPYYWPEYNYWGQGTQVTVSS | high polyreactivity |
| QVQLVDSGGGLVQAGGSLRLSCAASGLIFSDYAMGWYRPAPGKERELVAAIRSGGRTYYADSVKGRFTISRDNATNTVYLEMNSLKPEDTAVYFCNKLYRRYPVPREYDYWGQGTQVTVSS | high polyreactivity |
| QVQLVDSGGGLVQAGGSLRLSCAASGLIFYHNTMGWSRQAPGKEREFVASISQSGGSTYYADSVKGRFTISRDNAKNTVYLQMNSLKPEDTAVYYCAKKVRRWRTMDYWGQGTQVTVSS | high polyreactivity |
| QVQLVDSGGGLVQAGGSLRLSCAASGLTFGFNAMGWYRQAPGKERELVAAISSGGSTYYADSVKGRFTISRDNAKNTVYLQMNSLKPEDTAVYYCATSVRQYGRTTYYYWGQGTQVTVSS | high polyreactivity |
| QVQLVDSGGGLVQAGGSLRLSCAASGLTFRYYAMGWYRQAPGKERELVASISWSGASTYYADSVKGRFTISRDNAKNTVYLQMNSLKPEDTAVYYCNAGYFGSYDYWGQGTQVTVSS | high polyreactivity |
| QVQLVDSGGGLVQAGGSLRLSCAASGLTFSKYAMGWYRQAPGKERELVATITRRGSSTYYADSVKGRFTISRDNAKNTVYLQMNSLKPEDTAVYYCNAVGVRRAIGYPSQTEYGYWGQGTQVTVSS | high polyreactivity |
| QVQLVDSGGGLVQAGGSLRLSCAASGNILRKYAMGWYRQAPGKERELVAAISSSGGRTYYADSVKGRFTISRDNAKNTVYLQMYSLKPEDTAVYYCAKDPYGRLQPRPRFGYWGQGTQVTVTS | high polyreactivity |
